# Reference: the DeepSol protein solubility set
# Experiment: soluble on expression in E. coli; label from the status in PepcDB or PDB records
row,Sequence,soluble on expression in E. coli
1,MKLQTTYPSNNYPIYVEHGAIKYIGTYLNQFDQSFLLIDEYVNQYFANKFDDILSYENVHKVIIPAGEKTKTFEQYQETLEYILSHHVTRNTAIIAVGGGATGDFAGFVAATLLRGVHFIQVPTTILAHDSSVGGKVGINSKQGKNLIGAFYRPTAVIYDLDFLKTLPFKQILSGYAEVYKHALLNGESATQDIEQHFKDREILQSLNGMDKYIAKGIETKLDIVVADEKEQGVRKFLNLGHTFGHAVEYYHKIPHGHAVMVGIIYQFIVANALFDSKHDISHYIQYLIQLGYPLDMITDLDFETLYQYMLSDKKNDKQGVQMVLMRQFGDIVVQHVDQLTLQHACEQLKTYFK,soluble
2,MKVRNVIIGFMVASLTGCSMGHRDPVEIKQTLDKSINENGGLLLADLPASVQADLMPELNTPHVEVEEPVKRFRVRANGVGAKAFFTSLVKGTEYSVVIHPQVSGRITMNLSDVTMDDVLSSVEDLYGYDIVKAGKVLQVYPATIRTETIPVDYLQLTRKGRSLTTITTGSITNSDNNSSNNNNSSSKSNNNSSSSSSSATGGTEIETTSESDFWKELETAISVMIGNGADRSVVVSPQASVVTITASPDELRKVKQFLGTSHKRLQRQVILEAKLLEVTLSDGYQQGINWSNLTASLGGTDVVFGQTSGLVQGALPGMDTIGTLLGGQTNITVSDGNFQAVLSFMDTQGDLNVLSSPRVTAANNQKAVIKVGRDEYYVTEVSSVTGSGDNSNASPEVTLTPFFSGISLDVTPQIDDKGNVMLHVHPSVIDVENEVKEIDLGDVGGVLKLPLAKSSIRESDSVIRAKSGDVVVIGGLMKSQTVDQVSKVPLLGDVPALGHLFRNVSQLTQKTELVILLKPTVVGVDTWQEELERSRDLLQEWFPDELEHHHHHH,soluble
3,MGSDKIHHHHHHMTVLHSPEPDIDPAILLEAADWLVLLQSGEATERDRMALAHWRERNPAHEAAWRRAENMLSTFDQVPPKLGHDTFSHLGNPGRRQMLRLGLLALAMPAAWITWRHSPWQEWVADLRTATGEQKLIDLNDGTHLVLNTTSAANVAFTTAERRLILLAGEILVTTGRDPSPVSRPFIVQTAHGSLRALGTRFTVRHFDDRTQVAVLEGAVEVHPAVSIQTTVLRAGEQMTFTGLDMQPVRPVEASTTLWEHGMLLARDMHLGELIAELNRYHRGVLRCDPSVASLAISGAFPVTDIPASLALLETTLPIRISSTTSWWITVQAR,not soluble
4,MGSDKIHHHHHHMTETTSQMRREVLEIPAAIDRLLSQGTPEIARIAAAVAKADPRFAVTVARGSSDHACTFLKYALELELGLPVASIGPSVASIYGAQLKLANSITLSVSQSGKSPDIVAMSRAATEGDSFTVAITNDAQSPLSDASSHTIDIHAGPEISVAATKTFVTSAAAGLILLAEWKDDDILRAALRGLPECLSKAATHDWPDLRAAIGSASSLFTLGRGPAWAISNEAALKFKETCQIHAESYSSAEVLHGPVSIVGGGFPVLCFASGDAAEASVTDVADQLAAKGARVFVTSDKADTAHCLPHVRTGHPLTDPLALIVSFYAMIEKVAAERGVNPDAPRHLNKVTETV,not soluble
5,APVPTYQTLIVRPGDLQQSVLATGKLDALRKVDVGAQVSGQLKTLSVAIGDKVKKDQLLGVIDPEQAENQIKEVEATLMELRAQRQQAEAELKLARVTYSRQQRLAQTQAVSQQDLDNAATEMAVKQAQIGTIDAQIKRNQASLDTAKTNLDYTRIVAPMAGEVTQITTLQGQTVIAAQQAPNILTLADMSAMLVKAQVSEADVIHLKPGQKAWFTVLGDQLTRYEGQIKDVLPTPEKVNDAIFYYARFEVPNPNGLLRLDMTAQVHIQLTDVKNVLTIPLSALGDPVGDNRYKVKLLRNGETREREVTIGARNDTDVEIVKGLEAGDEVVIGEAKPGAAQ,soluble
6,MGSDKIHHHHHHNRASAQTVSEKDATSTQAPVFLTYTVTKENETVEIVGQVTADTKKVTSKVSGDVLEIYVEEGDVVQVGQKIAKIDDTDYQISYLSALNSYKTSPTEINRLNLEKAKENLENTTVVSPVSGVVQAVNVDVGDRVSVGTSIVTIVETDTLRVEGSISEYDLKNVKEGMKAVFTFEQLGLTLTGKVKRISPVAETSGGVTVIPVEFSFDQTPPSLVIPGLTCDVEIIIKEATSSFFIPKEAVRQDQNGYYVMKQTPQGPQKVYVELGEELNDKIEIKKGVSEGDVLLLIPSQQEIQRLRTRQGLPMFGPGGGRAR,not soluble
7,MRGSHHHHHHGSMEEYYMKLALDLAKQGEGQTESNPLVGAVVVKDGQIVGMGAHLKYGEAHAEVHAIHMAGAHAEGADIYVTLEPCSHYGKTPPCAELIINSGIKRVFVAMRDPNPLVAGRGISMMKEAGIEVREGILADQAERLNEKFLHFMRTGLPYVTLKAAASLDGKIATSTGDSKWITSEAARQDAQQYRKTHQSILVGVGTVKADNPSLTCRLPNVTKQPVRVILDTVLSIPEDAKVICDQIAPTWIFTTARADEEKKKRLSAFGVNIFTLETERIQIPDVLKILAEEGIMSVYVEGGSAVHGSFVKEGCFQEIIFYFAPKLIGGTHAPSLISGEGFQSMKDVPLLQFTDITQIGRDIKLTAKPTKE,soluble
8,MGSDKIHHHHHHMKQIIDIENWERKENFNFFRHFQNPQLSITSEVECGGARQRAKAAGQSFFLHYLYAVLRAANEIPEFRYRIDPDGRVVLYDTIDMLSPIKIKENGKFFTTRFPYHNDFDTFYQEARLIIDAIPEDGDPYAAENEEVADGDYGLILLSATPDLYFTSITGTQEKRSGNNYPLLNAGKAIIREGRLVMPIAMTIHHGFIDGHHLSLFYKKVEDFLK,not soluble
9,VCQILEVDRSTYHYKSRRPGQASLESKIKEICQTRVRYGYRRVHVLLRREGWLINQKKTRRIYRELGLQLRNKTPKRRVRAKLRDDRRDATHPNETWAMDFVHDQLATGNKIRVLTVVDLFSRYSPVLDPRFSYRAENVVQTLEHTWAAVGYPKTIRVDQGSEFISRELDLWAYSNGVTLDFSRPGKPTDNAFIEAFNGRFRAECLNTHWFLTLDDARSKLEDWRRYYNEQRPHGAIGNRPPITLHNRDSDPSSPS,soluble
10,TSLFTTADHYHTPLGPDGTPHAFFEALRDEAETTPIGWSEAYGGHWVVAGYKEIQAVIQNTKAFSNKGVTFPRYETGEFELMMAGQDDPVHKKYRQLVAKPFSPEATDLFTEQLRQSTNDLIDARIELGEGDAATWLANEIPARLTAILLGLPPEDGDTYRRWVWAITHVENPEEGAEIFAELVAHARTLIAERRTNPGNDIMSRVIMSKIDGESLSEDDLIGFFTILLLGGIDATARFLSSVFWRLAWDIELRRRLIAHPELIPNAVDELLRFYGPAMVGRLVTQEVTVGDITMKPGQTAMLWFPIASRDRSAFDSPDNIVIERTPNRHLSLGHGIHRCLGAHLIRVEARVAITEFLKRIPEFSLDPNKECEWLMGQVAGMLHVPIIFPKGKRLSE,soluble
11,MAMNNILGLFAQSPLKPLQKHSVKVTECSELLEPFFEATFKQDWDEAIKVREQIIDLERRADALKREIRLKLPRGLFLPVERTDLLELVTQLDKLANYSRDISGRIIGRQLVIPEAMQATFRKFLSRSLDSTRQVRKVLAELDKLLETGFRGRELKFVNNMILELDQIEDDTDQIQIVLRRTLRGLEQEFNPIDVIFLYKCIERVSILADQAQRVGSRIELMLAKALEHHHHHH,soluble
12,MGSDKIHHHHHHMPKRFEWLFYAFIAFALYSCNGSSRGKGTEVETVSIDTADFNFPVRFEYAKGIQTVNHTGYKTVYIFHPDKPDTMAVYILYPRDSKRPVARHPKALYIPVPARTIACLSTTQIGSLPLLDQTDKLVGCINLKNICNADIRNRIKKGYVQEIGTGMTKNIEQIAGLRPEILLQDLFHVSDKDEELIASGINTVLYNEWKERDLLGRAEWMKLTAMLLSCNRRAHEVFEQIESEYAEARKLVAEKTDTIAIMYGQDYNGTWYLPGEYSYSTAMFRDARVSFDYAAGKVSSQPCSFEYIFSRHRHAEIWICTMMGNIKTMDEFLALNERYRHFDATQTGKVYIDRKRVNENGGNDYWESGLYRPDLLLKDIIKITRPELLPEYETSYWIELKRP,not soluble
13,VSTTPAAGVLDTSVFIATESGRQLDEALIPDRVATTVVTLAELRVGVLAAATTDIRAQRLATLESVADMETLPVDDDAARMWARLRIHLAESGRRVRINDLWIAAVAASRALPVITQDDDFAALDGAASVEIIRV,not soluble
14,MSTSNAQSGRAAAIARRNAQVKGKGYTASAAPAAPRKPAAPVAEPVVAAAPAPSQPSRSRRKVSVAPTATPAASAAGREAAKLKRQQQKNGKSSAGAANAMPHPKAKAKQKPEEPIVEPRQAKAEKPTKRSERRTGVKPQVASQQPSGRLQSKAYRKAQAKGKAGQEAFKSNGSSQSGAKAKLANPDASTREIAQQVRAERCAQGKTCSTGGSRPMRKRRNAKEAPQKVGESQTLHGQSVSGTQVGQGEKKMTGSESGACQLVSGTEYLGAEEFSKNCDVQPTPQPAKVTQTQTTRGQVVSGSTKVGRSDKMTGNETGTCSAITGTEYLPADQSKMYCGETPAKSKATGFSVMSQATQKSEQKVTGGDSRKSQSTTFKPKNPASAPHKVMPSQTAKGNTTTGSQVGRLESVTGGERGSCHAVTGTGYQGAEEAKACDMPMTETADKVTASGTAGGQKVTGDRSGAYYGMTGAEAGDCKTITGTSYTGTEQFQFCSVDEQNEMKVRQRKGANPSISGVQPGPQGLTGAQKGACELVTGSHYQGGDQTAMVCDSTNAAAPGESDFPAMIGQAQPAFSTNEVEPMVDEGSKITGDGWDRGSKVTGTDGPWAAQRNASIRGVAGQSPMGASQYRPVNNEVPMSPITGSSGNTDTGAKVTLSGGARA,not soluble
15,MGSDKIHHHHHHMASYSLVESNSFGSENWCLKLQPSYKHGLLTGLSNGEIRLLDWSTGKSVQKIKASETAINDMKVIGSDFSAGHLVSSASIDAVKVFDIRTNDRIAQIQNEANSPFISLDSRHGLLACGTELQGIDAAVYIYDIRKWDTPLRSLIDSHHDDVTCIKFHPSDVNILLSGSTDGYTNIYDLKQDEEEDALHQVINYASIHSCGWLSPKRIFTLSHMETFAIHELNDKSDELKEPQPLDFGDVREIWNCDYVVDIYPGLIATGKTQENCGELCLLPFKDEKVDTENGIVIPHAHGDEVVRDIFIPAQHSNMLYSCGEDGCVKIWENKQGPLDIPENFWDYSKKMNVLGDDDREGSINLDEPLIIQKESVSTRPRKEKHKKAKKHSMKSRFKPY,not soluble
16,MGSDKIHHHHHHMSQQRPDRIKQMLHYLWQHRHLSTQQAIELFGYAEATVRRDFHYIASRYPGMVRGHGCIDFDDSTEDKEYVFDVKRTLQSEAKREIAALARTFIKDGDCFFLDSGSTCLELAKCLVDAKVKVICNDIKIANELGGFPHVESYIIGGLIRPGYFSVGESLALEMINAFAVERAFISCDALSIETGITNATMFEVGVKTRIIQRSREVILMADHSKFDTVEPHAVATLSCITTILSDSALPSAIARRYQQAGCRLIMSDPSSGAR,not soluble
17,AHHHHHHGSQRLEESTSCRGVGDMRKAIIVGVGMTPVGEHWRSSLRDLAVEAILNAMDDAGIDKVDSLYVGNMASGSFVEQENLGALIADWAGLGNIPAVKIEAACASGGAAVQEGAKAVLSGLEDVVLVVGVEKMTDAWPSDATRYLGYAADAEWELFHGASFVALNALIMRLYMNTYGYKEEDLALFAVNAHANGAKNPYAMFKKPITVETVMKSPYIADPLKLFDASPVCDGAAAVIITTPEKAKELGIPKDKWIEIAGMGRAIDTINLANREDFLTLKAATIAAERAYKMAGVKPEDVDFFEVHDAFTVMAALSLEALGVAKKGEGAKLAIEGQIAIDGDYPIQTMGGLKARGHPVGATGVYQVVEAVLQLRGEAPDGIQVPDAEVGLTQNIGGTGSNITVTVLRRV,soluble
